From patent US7576177B2, “Hsp peptides and analogs for modulation of immune responses via antigen presenting cells” (Andromeda Biotech Ltd., priority 2002, dated 2009) come the findings set out here.

The test system of assay [1] is BALB/c DO.11.10 bone marrow cells cultured for dendritic cells, cocultured with DO.11.10 T cells. Kind of assay: Education of mouse dendritic cells and stimulation of T-cells, cytokine content of supernatant. Format: cell-based. As to conditions: 0.3 nM Ova peptide. As for the experimental part:
Whelan et al. (J. Immunol 164, 6453-6460, 2000) addressed the problem in mice by an experiment in which mouse bone marrow cells were grown for 6 days in culture with GM-CSF to give immature dendritic cells. These dendritic cells were then incubated overnight with LPS (known to drive cells to DC1) or with a nematode antigen. The reason for the choice of nematode antigen was that injection of this antigen in vivo gives rise to a Th2 response in animals. After this so-called “education” of the dendritic cells, they were washed and subsequently incubated with naive T cells in the presence of antigenic stimulus. The experiment was possible because of the use of transgenic mice in which all the T cells respond to the same peptide (OVA323-339) which absolves the system from any question of bias of the T cell response at the level of the T cells. Any bias should be a consequence of the “education” of the dendritic cells. After three days of incubation the cytokine responses produced by the T cells, were measured by ELISA. […] In contrast, nematode antigen incubation gave rise to more IL-4 (Th2) than did controls while the LPS incubation inhibited the IL4 response. Therefore, the nematode antigen was said to drive cells to DC2. A similar method was used for testing the compounds of the present invention: • 1. Bone marrow cells were extracted from the leg bones of DO.11.10 mice transgenic for the TcR. All cells from these mice respond to the OVA peptide ([…]). • 2. Bone marrow cells were plated at 10^6 cells/ml in 100 mm diameter tissue culture petri dishes in Iscove's medium supplemented with 10% FCS, […], 1 mM sodium pyruvate, penicillin/streptomycin (according to manufacturer's recommendations), non-essential amino acids, 50 μM β-mercaptoethanol and 10 ng/ml mGM-CSF. • 3. After 4 days, the medium was carefully removed and replaced with fresh medium • 4. After 6 days, the non-adherent cells were harvested and used as immature dendritic cells • 5. The immature dendritic cells are plated at 1×10^6 cells/ml, 1 ml/well in 24 well plates in the above medium with various reagents added at various concentrations and incubated overnight. This is the stage in which the dendritic cells are “educated” • 6. The next day the cells were harvested and washed 3 times then resuspended at 5×10^4 cells/ml in 1 ml of the above medium but without the addition of GM-CSF to be cocultured with T cells • 7. […] 5×10^5 T cells were cultured with the dendritic cells from step 6 in the presence of various concentrations of the OVA peptide (0, 0.3 nM, 3 nM and 30 nM). • 9. After 3 days PMA (50 ng/ml) and ionomycin (500 ng/ml) were added to further stimulate the cells. • 10. The next day the cell supernatants were collected and assayed for cytokine content (Interferon γ, IL4, IL-10 and IL-12).
The compound was tested for stimulation of DO.11.10 bone marrow cells according to the assay described above (Production and education of mouse dendritic cells and stimulation of T-cells).
BALB/c DO.11.10 bone marrow cells were cultured for dendritic cells and then stimulated with LPS 1 μg/ml, LPS 10 μg/ml, hsp60 3 μg/ml, hsp60 10 μg/ml, p277 5 μg/ml and p277 50 μg/ml. The cells were then transferred to wells with T cells from fresh BALB/c DO.11.10 mice and stimulated with OVA peptide at different concentrations (0, 0.3 nM, 3 nM, 30 nM). Supernatant was collected after 48 hours for assay. 30 μl was taken for IFN, 40 μl for IL4 and IL-10 and 50 μl for IL-12 assays. The results are presented in the following tables, as amount of cytokine (pg/ml), and in FIG. 1.

For assay [2], the system named is peripheral blood mononuclear cells cultured with GM-CSF and IL4 (dendritic cells). Put plainly: Peripheral blood derived dendritic cells: secreted cytokines (IP-10, IL-8) and cell surface antigens (CD83, CD86). The assay is classed as cell-based, human. The following applies: overnight. As for the experimental part:
The effect of the compositions of the present invention on peripheral blood derived dendritic cells, was tested according to a protocol described by Re, F. and Strominger, J. L. 2001. Toll-like receptor 2 (Tlr2) and Tlr4 differentially activate human dendritic cells. (J Biol Chem 276: 37692-9). According to this method immature dendritic cells derived from human peripheral blood are used. The outcome after incubating the cells with tested molecules is different if the stimulation is through the Toll 4 receptor or the Toll 2 receptor. According to the authors, Toll 2 signaling by stimulation with zymosan is associated with a Th2 kind of response (exemplified by IL-8) and Toll 4 signaling, such as obtained by LPS stimulation (exemplified by IP-10), with a Th1 type of response. The compositions of the present invention were tested using a similar assay system in order to check which stimulation type they induce. […] The increase in CD86 expression after exposure of APCs to Hsps or Hsp derived peptides is important since CD86 (B7.2) is an essential component of the immunological synapse formed between T cells and APC. This synapse consists of CD80 and CD86 on the side of the APC and CD28 and CD40 on the side of the T cell. T cell recognition of peptide on APC without the concurrent expression of CD86 gives rise to anergy instead of a T cell response. Therefore in order to produce a response all components must be present.
The assay was based on the protocol described by Re, F. and Strominger, J. L. 2001. Toll-like receptor 2 (Tlr2) and Tlr4 differentially activate human dendritic cells. (J. Biol Chem 276: 37692-9).
Peripheral blood mononuclear cells were prepared from leucocytes from blood lots obtained from the blood bank. The cells were plated at 10^8 cells/10 ml/Petri dish in RPMI medium including 10% FCS and allowed to adhere at 37° C. for 2 hours. At the end of this time, the non-adherent cells were washed off the plates with PBS and the adherent cells resuspended in fresh medium as before. […]

Assay [3] has as its system peripheral blood monocytes. Put plainly: Peripheral blood monocytes: IP-10 after direct stimulation or preincubation then LPS. Format: cell-based, human. As to conditions: peripheral blood monocytes, no preincubation, FIG. 4. As for the experimental part:
Peripheral blood mononuclear cells were prepared from leucocytes of blood lots obtained from the blood bank. The cells were plated at a concentration of 4×10^6 cell/ml/well in 24 well tissue culture dishes in medium containing 10% fetal calf serum. The cells were allowed to adhere for 2 hours at 37° C. After this time, non-adherent cells were washed away and the adherent cells incubated in fresh medium containing 10% human AB serum for 6-8 days, changing the medium after 4 days. These culture conditions were reported to give rise to monocytes.
For stimulation the medium was replaced with medium without serum. For preincubation, the cells were exposed overnight to the tested compounds at various concentrations and then LPS was added. The supernatant was collected after a further overnight incubation and tested for various cytokines by ELISA assays.

Setting [4] is: dendritic cells educated with 3 μg/ml.
Setting [5] is: dendritic cells educated with 10 μg/ml.

B1: hsp60: heat shock protein 60, mitochondrial chaperone, used as stimulus (protein)
chain: MLRLPTVFRQMRPVSRVLAPHLTRAYAKDVKFGADARALMLQGVDLLADAVAVTMGPKGRTVIIEQGWGSPKVTKDGVTVAKSIDLKDKYKNIGAKLVQDVANNTNEEAGDGTTTATVLARSIAKEGFEKISKGANPVEIRRGVMLAVDAVIAELKKQSKPVTTPEEIAQVATISANGDKEIGNIISDAMKKVGRKGVITVKDGKTLNDELEIIEGMKFDRGYISPYFINTSKGQKCEFQDAYVLLSEKKISSIQSIVPALEIANAHRKPLVIIAEDVDGEALSTLVLNRLKVGLQVVAVKAPGFGDNRKNQLKDMAIATGGAVFGEEGLTLNLEDVQPHDLGKVGEVIVTKDDAMLLKGKGDKAQIEKRIQEIIEQLDVTTSEYEKEKLNERLAKLSDGVAVLKVGGTSDVEVNEKKDRVTDALNATRAAVEEGIVLGGGCALLRCIPALDSLTPANEDQKIGIEIIKRTLKIPAMTIAKNAGVEGSLIVEKIMQSSSEVGYDAMAGDFVNMVEKGIIDPTKVVRTALLDAAGVASLLTTAEVVVTEIPKEEKDPGMGAMGGMGGGMGGGMF
modifications: Homo sapien
notes: heat shock protein 60, mitochondrial chaperone, used as stimulus
Regarding B1, the “IFN secretion of T cells” value in assay [1] (setting [4]) was 447.78 pg/mL; in assay [1] (setting [5]) it was 480.56 pg/mL. The “IL-4 secretion of T cells” value came to 35.96 pg/mL in assay [1] (setting [4]) and 24.29 pg/mL in assay [1] (setting [5]). Besides, the “IL-10 secretion of T cells” value in assay [1] (setting [4]) was found to be 34.50 pg/mL; in assay [1] (setting [5]), 80.18 pg/mL. Also, the figures for the “IL-12 secretion of T cells” value in assay [1] (setting [4]) and in assay [1] (setting [5]) were 95.00 pg/mL and 126.25 pg/mL, respectively. Besides, the results for the IP-10 in assay [2] (stimulus 10 ng/ml), in assay [2] (stimulus 0.1 μg/ml) and in assay [2] (stimulus 1 μg/ml) were 6 pg/mL, 1 pg/mL and 31 pg/mL, respectively. For the same molecule, the “IP-10 after direct stimulation” value in assay [3] is “did not give rise to IP-10”.
